The target of data set [1] is T1, L-AAO/MOG (Pseudomonas sp. AIU 813, UniProt W6JQJ6).
T1 construct: gene laao; N-terminally His-tagged, pET15b-laao/mog, expressed in E. coli; homodimer with FAD
T1 sequence (W6JQJ6 1-560): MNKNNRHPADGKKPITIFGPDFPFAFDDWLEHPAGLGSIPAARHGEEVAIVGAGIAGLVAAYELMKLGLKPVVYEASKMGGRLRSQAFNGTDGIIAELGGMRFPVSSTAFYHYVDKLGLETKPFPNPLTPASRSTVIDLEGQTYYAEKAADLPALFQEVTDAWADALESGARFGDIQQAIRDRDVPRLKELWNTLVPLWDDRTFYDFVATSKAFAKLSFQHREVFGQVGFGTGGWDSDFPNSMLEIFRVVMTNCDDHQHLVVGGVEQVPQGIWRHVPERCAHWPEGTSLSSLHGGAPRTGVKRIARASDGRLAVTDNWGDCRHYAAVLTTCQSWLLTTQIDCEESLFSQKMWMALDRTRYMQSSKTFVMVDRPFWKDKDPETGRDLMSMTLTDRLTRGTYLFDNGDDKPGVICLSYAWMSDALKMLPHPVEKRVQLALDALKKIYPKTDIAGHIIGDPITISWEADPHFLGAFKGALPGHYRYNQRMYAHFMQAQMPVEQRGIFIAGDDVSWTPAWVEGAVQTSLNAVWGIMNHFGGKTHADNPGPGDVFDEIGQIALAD
Put plainly: X-ray crystal structure, soaking, […] Å. It counts as binding. As to conditions: active site, also second site at dimer interface; 10 mM soak; modelled as unreacted substrate, redox state uncertain.

A further data set concerns T2, NCCCC[C@H](N)C(=O)O.
T2 construct: N-terminally His-tagged, pET15b-laao/mog, expressed in E. coli; homodimer with FAD
Put plainly: purified protein. Particulars: 100 mM potassium phosphate pH 7.0, 30 °C. The format is biochemical, Pseudomonas sp. AIU 813.

Another data set has as its system T3, N=C(N)NCCC[C@H](N)C(=O)O.
T3 construct: N-terminally His-tagged, pET15b-laao/mog, expressed in E. coli; homodimer with FAD
Put plainly: purified protein. It counts as biochemical, Pseudomonas sp. AIU 813. As to conditions: oxidase reaction, borate-NaOH pH 9.0, 30 °C, pH 9.0.

Data set [2] deals with T1, L-AAO/MOG. Put plainly: X-ray crystal structure, soaking, […] Å. The format is binding. As to conditions: active site, also second site; 20 mM soak; density relatively ambiguous; modelled as unreacted substrate.
In data set [3] the target is T1, L-AAO/MOG. Put plainly: X-ray crystal structure, […] Å. Particulars: bound cofactor; redox state mixed or uncertain; L-Lys complex. The format is binding.
Data set [4] deals with T1, L-AAO/MOG. Put plainly: X-ray crystal structure, soaking, […] Å. It counts as binding. As to conditions: active site, also second site; 20 mM soak; density relatively ambiguous; modelled as unreacted substrate. This is another data set of the same source.
Substrate in data set [5]: NCCC[C@H](N)C(=O)O
Put plainly: purified protein. Particulars: borate-NaOH pH 9.0, 30 °C.

Data set [6] deals with the molecule itself. Put plainly: crystal structure; sitting-drop vapor diffusion at 20 °C, 20% PEG3350 and 0.15 M DL-malic acid pH 7.0; crystals soaked with 10 mM L-Lys, 20 mM L-Orn or 20 mM L-Arg; tetramer (two biological dimers) in the asymmetric unit.
Substrate in data set [7]: N=C(N)NCCC[C@H](N)C(=O)O
Put plainly: purified protein. It counts as biochemical, Pseudomonas sp. AIU 813. As to conditions: borate-NaOH pH 9.0, 30 °C, pH 9.0.

Substrate in data set [8]: NCCCC[C@H](N)C(=O)O
Put plainly: purified protein. The format is biochemical, Pseudomonas sp. AIU 813. Particulars: 100 mM potassium phosphate pH 7.0, 30 °C, pH 7.0.

Turning to `NCCCC[C@H](N)C(=O)O` [L-Lys], the “X-ray crystal structure, soaking, 2.10 Å” value on L-AAO/MOG [1] is “electron density map for a L‐Lys molecule was clearly observed in the substrate binding pocket”.
For “L-AAO/MOG (Pseudomonas sp. AIU 813; D238F)”, the Km (usually the substrate concentration at which the rate is half of its maximum) was 72 ± 3 µM in the data set with NCCCC[C@H](N)C(=O)O (monooxygenase reaction); 49 ± 9 µM with NCCCC[C@H](N)C(=O)O (oxidase reaction, pH 7.0); 80 ± 18 µM in the data set on N=C(N)NCCC[C@H](N)C(=O)O. Further, the kcat (in general, the number of substrate molecules converted per active site and unit of time at saturation) in the data set with NCCCC[C@H](N)C(=O)O (monooxygenase reaction) stood at 0.8 ± 0.04 s⁻¹; in the data set on NCCCC[C@H](N)C(=O)O (oxidase reaction, pH 7.0) it was 0.17 ± 0.01 s⁻¹; with N=C(N)NCCC[C@H](N)C(=O)O it was 0.1 ± 0.01 s⁻¹. Besides, the kcat/Km (as a rule, the second-order rate constant that governs catalysis at low substrate concentration) in the data set on NCCCC[C@H](N)C(=O)O (monooxygenase reaction) amounted to 11000 ± 1000 M⁻¹ s⁻¹; in the data set with NCCCC[C@H](N)C(=O)O (oxidase reaction, pH 7.0) it was 3500 ± 200 M⁻¹ s⁻¹; in the data set with N=C(N)NCCC[C@H](N)C(=O)O it was 1300 ± 100 M⁻¹ s⁻¹.
For “L-AAO/MOG (Pseudomonas sp. AIU 813; D238E)”, in the data set with NCCCC[C@H](N)C(=O)O (monooxygenase reaction), the Km amounted to 43 ± 1 µM, the kcat was 8.1 ± 0.6 s⁻¹ and the kcat/Km came to 190000 ± 10000 M⁻¹ s⁻¹. Besides, in the data set with NCCCC[C@H](N)C(=O)O (oxidase reaction), the Km is 18 ± 6 µM, the kcat was 2.3 ± 0.3 s⁻¹ and the kcat/Km is 130000 ± 10000 M⁻¹ s⁻¹.
As to `N=C(N)NCCC[C@H](N)C(=O)O` [L-Arg], on L-AAO/MOG [2], the “X-ray crystal structure, soaking, 2.30 Å” value was “The structures of L‐AAO/MOG complexed with either L‐Lys, L‐Orn, or L‐Arg were determined”.
On to “L-AAO/MOG (Pseudomonas sp. AIU 813; D238A)”, for which the Km with NCCCC[C@H](N)C(=O)O (monooxygenase reaction) stood at 260 ± 20 µM; in the data set on NCCCC[C@H](N)C(=O)O (oxidase reaction, pH 7.0) it was 610 ± 50 µM; with N=C(N)NCCC[C@H](N)C(=O)O, 410 ± 10 µM. The kcat in the data set on NCCCC[C@H](N)C(=O)O (monooxygenase reaction) was 2.7 ± 0.4 s⁻¹; in the data set on NCCCC[C@H](N)C(=O)O (oxidase reaction, pH 7.0) it was 0.5 ± 0.03 s⁻¹; with N=C(N)NCCC[C@H](N)C(=O)O, 0.1 ± 0.02 s⁻¹. Moreover, the kcat/Km is 10000 ± 1000 M⁻¹ s⁻¹ with NCCCC[C@H](N)C(=O)O (monooxygenase reaction) and 240 ± 60 M⁻¹ s⁻¹ in the data set with N=C(N)NCCC[C@H](N)C(=O)O.
Consider `Cc1cc2nc3c(=O)[nH]c(=O)nc-3n(C[C@H](O)[C@H](O)[C@H](O)COP(=O)(O)OP(=O)(O)OC[C@H]3O[C@@H](n4cnc5c(N)ncnc54)[C@H](O)[C@@H]3O)c2cc1C` [FAD], for which the “X-ray crystal structure, 2.10 Å” value at L-AAO/MOG [3] is “FAD and L‐Lys molecules are shown as yellow and magenta sticks”.
On to `NCCC[C@H](N)C(=O)O` [L-Orn], for which the “X-ray crystal structure, soaking, 2.00 Å” value at L-AAO/MOG [4] is “The structures of L‐AAO/MOG complexed with either L‐Lys, L‐Orn, or L‐Arg were determined”.

B1: L‐Amino acid oxidase/monooxygenase from Pseudomonas sp. AIU 813 (enzyme)
chain: MNKNNRHPADGKKPITIFGPDFPFAFDDWLEHPAGLGSIPAARHGEEVAIVGAGIAGLVAAYELMKLGLKPVVYEASKMGGRLRSQAFNGTDGIIAELGGMRFPVSSTAFYHYVDKLGLETKPFPNPLTPASRSTVIDLEGQTYYAEKAADLPALFQEVTDAWADALESGARFGDIQQAIRDRDVPRLKELWNTLVPLWDDRTFYDFVATSKAFAKLSFQHREVFGQVGFGTGGWDSDFPNSMLEIFRVVMTNCDDHQHLVVGGVEQVPQGIWRHVPERCAHWPEGTSLSSLHGGAPRTGVKRIARASDGRLAVTDNWGDCRHYAAVLTTCQSWLLTTQIDCEESLFSQKMWMALDRTRYMQSSKTFVMVDRPFWKDKDPETGRDLMSMTLTDRLTRGTYLFDNGDDKPGVICLSYAWMSDALKMLPHPVEKRVQLALDALKKIYPKTDIAGHIIGDPITISWEADPHFLGAFKGALPGHYRYNQRMYAHFMQAQMPVEQRGIFIAGDDVSWTPAWVEGAVQTSLNAVWGIMNHFGGKTHADNPGPGDVFDEIGQIALAD
notes: L-amino acid oxidase/monooxygenase (L-AAO/MOG), Pseudomonas sp; AIU 813; FAD-dependent; expression plasmid pET15b-laao/mog; Carries FAD; The biological dimer is chains A-C and B-D of the crystal; also called L‐AAO/MOG; wild‐type enzyme
As to B1, the Km was 33 ± 1 µM in “purified protein [5]” (monooxygenase reaction); 22 ± 4 µM in the data set “purified protein [5]” (oxidase reaction); 67 ± 5 µM in “purified protein [7]” (monooxygenase reaction); 48 ± 1 µM in “purified protein [7]” (oxidase reaction); 61 ± 6 µM in “purified protein [8]” (monooxygenase reaction); 27 ± 3 µM in “purified protein [8]” (oxidase reaction). The kcat in the data set “purified protein [5]” (monooxygenase reaction) is 6.7 s⁻¹; in the data set “purified protein [5]” (oxidase reaction), 1.5 s⁻¹; in the data set “purified protein [7]” (monooxygenase reaction), 1.6 ± 0.2 s⁻¹; in the data set “purified protein [7]” (oxidase reaction), 0.41 ± 0.02 s⁻¹; in the data set “purified protein [8]” (monooxygenase reaction), 4.5 ± 0.1 s⁻¹; in “purified protein [8]” (oxidase reaction), 0.8 ± 0.09 s⁻¹. In addition, the kcat/Km in “purified protein [5]” (monooxygenase reaction) was 200000 M⁻¹ s⁻¹; in the data set “purified protein [5]” (oxidase reaction), 68000 M⁻¹ s⁻¹; in the data set “purified protein [7]” (monooxygenase reaction), 24000 ± 1000 M⁻¹ s⁻¹; in the data set “purified protein [7]” (oxidase reaction) it was 8500 ± 650 M⁻¹ s⁻¹; in “purified protein [8]” (monooxygenase reaction) it was 74000 ± 5000 M⁻¹ s⁻¹; in the data set “purified protein [8]” (oxidase reaction), 30000 ± 1000 M⁻¹ s⁻¹. Further, in data set [6], the binding result was “binds”.

These data come from paper PMC5832979, “Ligand complex structures of L‐amino acid oxidase/monooxygenase from Pseudomonas sp. AIU 813 and its conformational change” (FEBS Open Bio, 2018).
